Target: human prostate-specific antigen (PSA) (human) (UniProt P07288)
Test: cell-based or functional assay

UniProt P07288, sequence (P07288 25-261 limits assumed): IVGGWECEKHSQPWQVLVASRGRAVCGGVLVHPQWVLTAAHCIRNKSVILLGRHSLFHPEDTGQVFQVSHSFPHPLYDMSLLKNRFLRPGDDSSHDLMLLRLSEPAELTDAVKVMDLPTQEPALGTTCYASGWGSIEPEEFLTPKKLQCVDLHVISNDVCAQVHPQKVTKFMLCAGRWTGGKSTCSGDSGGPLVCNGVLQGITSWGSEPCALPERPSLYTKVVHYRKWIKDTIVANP

decrease in PSA enzymatic activity: 46%
Substance: anti-PSA monoclonal antibody clone ER-PR8
